Measured values taken from the supplement of paper PMC9732359.
± gives the uncertainty stated by the source.

assay: protein stability index of a GFP-peptide fusion (yeast GPS) (PSI 1-4); higher = more stable; sorted into four equal gates, so the index is relative within each strain; conditions: ubr1∆
Summary of the method: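 Tiled 17-residue peptides from yeast proteins were fused downstream of GFP on a plasmid that also expresses Cherry, and the pooled library was carried in yeast. Mid-log cultures grown in leucine-free medium were sorted into four equal gates by GFP/Cherry fluorescence ratio. Plasmids from each gate were PCR-amplified and Illumina-sequenced, and reads were assigned to strains by barcodes. Each peptide's protein stability index is the sum, over gates, of the gate's read frequency multiplied by its gate number.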

Sequence	protein stability index
INTHIETLAYNSLKETL [SNF2]	2.61 ± 0.042
IPDHLAELIPELYSFQQ [SNF12]	2.93 ± 0.059
IPQSQQVPQVRSMSGQP [SNF5]	2.7 ± 0.039
IPRTFRTPVPSTLMPGG [SNF5]	2.65 ± 0.048
IPSLQNNIEENLRLLNS [ECM29]	3.25 ± 0.061
IPYAAKLLFQELLSMNI [RET1]	1.35 ± 0.056
IQAGKFDNKSTSEEQEA [SNF2]	2.94 ± 0.12
IQEANSVDMSALKDPQT [RIP1]	3.26 ± 0.077
IQNDIYLNDLMITKRIL [RPN12]	2.65 ± 0.12
IQQHARYDCSFCGKKTV [RPL43A]	3.06 ± 0.066
IQSSLMTNLTYFLHLSV [YCS4]	2.44 ± 0.058
IQVAAFIYGMSAKDHPK [PRP8]	3.17 ± 0.12
IQVLTEASSLGYLDDSE [IRR1]	1.42 ± 0.055
IRDSIPQMDSFDKDLER [DIS3]	3.01 ± 0.12
IREGQNQKIPDNVIVIN [SIR3]	3 ± 0.046
IREIDVTGGKKALVLFV [RPS7B]	1.23 ± 0.063
IREINYTMSNHGMSVDP [RPO31]	3.06 ± 0.13
IRGKILTGTVVSTKMHR [RPS11A]	2.9 ± 0.039
IRKDPNNLSNQLETLTG [CSE2]	2.77 ± 0.095
IRNCATEAGFFAIRDDR [RPT4]	2.91 ± 0.042
IRTILVNIHHLLNEYRP [MED7]	1.58 ± 0.053
IRYNAKRRNWRRTKMNI [RPL39]	3.32 ± 0.057
ISAEDRADTDLAMNDDD [SNF2]	3.32 ± 0.085
ISAFTQFLRLIFVSILS [ARP9]	1.22 ± 0.027
ISCPLIGVIQLAHYVVT [FAS1]	1.27 ± 0.042
ISDYQQLESIYFRILLP [SWI1]	2.34 ± 0.065

Sequence	protein stability index
ISENTFPNGFKNFENGP [RPC34]	2.57 ± 0.034
ISFRSNLLKNFISSNDA [SNF6]	2.27 ± 0.074
ISKDCSAFACKTDEVII [BRR2]	2.88 ± 0.073
ISKTTLTLDPRYIWRSL [RPN3]	2.6 ± 0.15
ISPESVFGTLGELIKVN [SMC3]	1.86 ± 0.036
ISSRTFGQRAVLKFAAH [RPS0A]	2.49 ± 0.11
ISTLQVKLYGREGSSAR [RPB2]	2.8 ± 0.086
ISTSDVTRIINSSEIQS [RPL4A]	2.58 ± 0.043
ISVNSSSFSLTFFPRCI [POP1]	2.44 ± 0.031
ITFHPKIRARSITLQGD [SMC2]	2.48 ± 0.043
ITFLQTLYIGNTANGRP [ECM29]	1.97 ± 0.12
ITLENITRLCQTLGLES [MED1]	1.89 ± 0.037
ITPMNDDQCMLITTYSK [SIN4]	1.99 ± 0.038
ITQDGKFAYKIDKITDG [YMR129W/POM152]	2.85 ± 0.051
ITSGGFLLKAYINVSRG [SRB5]	2.53 ± 0.15
ITSWYENHNKGKLWKDV [QCR9]	3.21 ± 0.13
ITTFVKRSTVPLNDGFV [YML103C/NUP188]	2.35 ± 0.053
ITYDKQEPSASQVKDSV [SRP68]	2.99 ± 0.071
IVDFTLPPPPPPPGLDE [PRP8]	3.14 ± 0.039
IVGVLQDDADPMVSVMK [RPT2]	2.26 ± 0.056
IVHDDPASDDILDNINH [ITC1]	3.25 ± 0.058
IVKGNIIDEIKCIPKKG [POP4]	2.09 ± 0.045
IVLLDDEGKEIPATIFD [TAF14]	3.06 ± 0.05
IVLSDQTQEFFLSSFDD [YJL039C/NUP192]	3.25 ± 0.13
IVMVWLKENTYVMERPK [YDL116W/NUP84]	1.4 ± 0.056
IVNHEQDLPKINDKRAN [SRB4]	3.08 ± 0.08
